Test results taken from patent publication US20240084023A1 (NGM BIOPHARMACEUTICALS, published 2024).
Where a chain is given by its changes, count along the chain named.

Tests used:
Assay in all cases: flow cytometry on transfected 293XP cells
[1] = target: T1, wild-type GCGR extracellular domain expressed in 293XP cells (human, UniProt P47871 26-136, limits assumed)
T1 construct: transfected into 293XP cells; also called WT GCGR
Experimental: (§1) To assist in gathering information on the GCGR epitope that the 6B5 binning group bound to, “alanine scanning mutagenesis” was undertaken. These alanine scanning mutagenesis platform is a technique used for mapping both linear and conformational antigen epitopes by evaluating the effects of point mutations across a target protein. Single residues in a target protein are replaced by alanine one at a time to construct a mutant library. Each variant is assayed for its ability to bind to an antibody of interest. […] Amino acids across the extracellular domain of GCGR were mutated to alanine and the anti-GCGR antibody Hz6B5 was tested for binding to the alanine mutants.
(§2) The wild-type GCGR extracellular domain and the alanine mutants were each transfected into 293XP cells and incubated for 24 hours. Antibody Hz6B5 was incubated with the transfected cells for 30 minutes at 4° C. After washing with PBS/1% BSA/0.1% azide, the cells were incubated with a labeled anti-mouse Fc antibody (Jackson Immunoresearch) for 30 minutes at 4° C. After washing with PBS/1% BSA/0.1% azide, the cells were analyzed using a flow cytometer BD (FACSCalibur instrument) and cytometric analytical software (FlowJo). A serum sample from a mouse immunized with human GCGR was used as positive control to confirm expression of the alanine mutants.

[2] = target: T2, GCGR extracellular domain alanine mutant F31A (human, UniProt P47871 26-136, limits assumed)
T2 construct: expressed in 293XP cells
T2 chain: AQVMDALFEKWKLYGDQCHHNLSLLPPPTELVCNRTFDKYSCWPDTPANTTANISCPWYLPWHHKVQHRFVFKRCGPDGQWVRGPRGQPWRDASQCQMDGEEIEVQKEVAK
Experimental: as §1, §2

[3] = target: T3, GCGR extracellular domain alanine mutant L32A (human, UniProt P47871 26-136, limits assumed)
T3 construct: expressed in 293XP cells
T3 chain: T2 chain with A6F, L7A
Experimental: as §1, §2

[4] = target: T4, GCGR extracellular domain alanine mutant Y39A (human, UniProt P47871 26-136, limits assumed)
T4 construct: expressed in 293XP cells
T4 chain: T2 chain with A6F, Y14A
Experimental: as §1, §2

[5] = target: T5, GCGR extracellular domain alanine mutant D41A (human, UniProt P47871 26-136, limits assumed)
T5 construct: expressed in 293XP cells
T5 chain: T2 chain with A6F, D16A
Experimental: as §1, §2

[6] = target: T6, GCGR extracellular domain alanine mutant H44A (human, UniProt P47871 26-136, limits assumed)
T6 construct: expressed in 293XP cells
T6 chain: T2 chain with A6F, H19A
Experimental: as §1, §2

[7] = target: T7, GCGR extracellular domain alanine mutant L50A (human, UniProt P47871 26-136, limits assumed)
T7 construct: expressed in 293XP cells
T7 chain: T2 chain with A6F, L25A
Experimental: as §1, §2

[8] = target: T8, GCGR extracellular domain alanine mutant F62A (human, UniProt P47871 26-136, limits assumed)
T8 construct: expressed in 293XP cells
T8 chain: T2 chain with A6F, F37A
Experimental: as §1, §2

[9] = target: T9, GCGR extracellular domain alanine mutant Y65A (human, UniProt P47871 26-136, limits assumed)
T9 construct: expressed in 293XP cells
T9 chain: T2 chain with A6F, Y40A
Experimental: as §1, §2

[10] = target: T10, GCGR extracellular domain alanine mutant T75A (human, UniProt P47871 26-136, limits assumed)
T10 construct: expressed in 293XP cells
T10 chain: T2 chain with A6F, T50A
Experimental: as §1, §2

[11] = target: T11, GCGR extracellular domain alanine mutant K98A (human, UniProt P47871 26-136, limits assumed)
T11 construct: expressed in 293XP cells
T11 chain: T2 chain with A6F, K73A
Experimental: as §1, §2

[12] = target: T12, GCGR extracellular domain alanine mutant P110A (human, UniProt P47871 26-136, limits assumed)
T12 construct: expressed in 293XP cells
T12 chain: T2 chain with A6F, P85A
Experimental: as §1, §2

[13] = target: T13, GCGR extracellular domain alanine mutant Q113A (human, UniProt P47871 26-136, limits assumed)
T13 construct: expressed in 293XP cells
T13 chain: T2 chain with A6F, Q88A
Experimental: as §1, §2

B1: anti-GCGR antibody Hz6B5 (antibody, V domains shown)
VH: QVQLVQSGAEVKKPGSSVKVSCKASGFTFTNHWLGWVRQAPGQGLEWIGDIYPGGYYINYNEKFKGRVTITADESTSTAYMELSSLRSEDTAVYYCARHTNYGSDYWGQGTTVTVSS
VL: DVVMTQSPLSLPVTLGQPASISCRSSQSIVDSYGNTFLEWYQQRPGQSPRLLIYKVSNRLSGVPDRFSGSGSGTDFTLKISRVEAEDVGVYYCFQGSHVPWTFGQGTKLEIK
notes: Humanized 6B5
% positive cells [1]: 87.8%
% positive cells [2]: 85.1%
% positive cells [3]: 76.9%
% positive cells [4]: 65.8%
% positive cells [5]: 84.3%
% positive cells [6]: 82.2%
% positive cells [7]: 86.6%
% positive cells [8]: 62.8%
% positive cells [9]: 64.8%
% positive cells [10]: 84.9%
% positive cells [11]: 82.5%
% positive cells [12]: 84.7%
% positive cells [13]: 83.4%
